Assay results reported in US20200197547A1 (INSERM INSTITUT NATIONAL DE LA SANT ET DE LA RECHERCHE M …, published 2020).

Tests used:
[1] = biological target: T1, Mesothelin (MSLN) on MSLN-positive HCC70 human triple negative breast cancer cells (human, UniProt Q13421 296-598); assay: cell-based or functional assay
[2] = biological target: T2, Human MSLN recombinant protein (R&D systems) (human, UniProt Q13421 296-580, limits assumed); assay: saturation radioligand binding on plate-immobilized recombinant human MSLN
T2 construct: Bought protein, 100 ng immobilized on immunosorbent plates; also called recombinant MSLN; recombinant human mesothelin
T2 sequence (Q13421 other isoform, or with tags, fused parts or gaps limits assumed): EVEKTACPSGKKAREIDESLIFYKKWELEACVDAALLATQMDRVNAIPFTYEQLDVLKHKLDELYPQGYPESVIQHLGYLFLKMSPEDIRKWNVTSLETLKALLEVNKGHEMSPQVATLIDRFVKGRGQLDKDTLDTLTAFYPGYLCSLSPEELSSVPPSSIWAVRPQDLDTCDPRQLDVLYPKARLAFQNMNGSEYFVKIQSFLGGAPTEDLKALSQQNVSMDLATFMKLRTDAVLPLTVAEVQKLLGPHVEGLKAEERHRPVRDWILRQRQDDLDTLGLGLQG
Method: (§1) Human MSLN recombinant protein (100 ng, R&D systems) was immobilized on immunosorbent plates (Corning Costar Stripwell, Sigma Aldrich) overnight at 4° C., and blocked with 1% milk. Serial dilutions of ^99mTc-A1 and ^99mTc-C6 from 1 μM to 0.8 nM were incubated for 1 hour. Unbound activity was removed by 5 serial washes with PBS-Tween 0.1%. The radioactivity in each well was determined using a γ-counter (Wizard², Perkin Elmer). Unspecific binding was determined by incubation of ^99mTC-A1 or ^99mTc-C6 in empty wells. Results were corrected from background and decay, and the [^99mTc-A1] and [^99mTc-C6] binding curves were fitted using a nonlinear regression equation (specific binding: Y=B max*X/(KD+X) with X being the radioligand concentration) and using GraphPad Prism 6 software to determine KD values. Uptake was normalized to the Bmax for graphic representation of 3 independent experiments.

[3] = biological target: T2, Human MSLN recombinant protein (R&D …); assay: saturation radioligand binding on recombinant human MSLN (as told in the discussion); value told in the discussion; recombinant human MSLN
Method: as §1

[4] = biological target: T2, Human MSLN recombinant protein (R&D …); assay: saturation radioligand binding on plate-immobilized recombinant human MSLN, gamma counting, nonlinear fit
Method: as §1

[5] = biological target: T1, Mesothelin (MSLN) on MSLN-positive …; assay: radioligand binding on cells in suspension, 40 nM 99mTc-A1, 1 h at 4 C, gamma counting
Method: (§2) HCC70 and MDA-MB-231 cells were rinsed with PBS, detached using EDTA 5 mM, and resuspended at 200,000 cells per tube. Cells were incubated for 1 hour with PBS-BSA 1% and then with 40 nM of ^99mTc-A1 or 150 nM of ^99mTc-C6 for 1 h at 4° C., in the absence or presence of a 200-fold excess of unlabeled A1 or C6. Cell suspensions were centrifuged at 400 g during 5 min at 4° C., and washed 5-times with cold-PBS. Cells were then transferred to new tubes and radioactivity was determined using a γ-counter (Wizard², Perkin).

[6] = biological target: T1, Mesothelin (MSLN) on MSLN-positive …; assay: competition on HCC70 cells, 200-fold excess of unlabeled A1 against 40 nM 99mTc-A1 (competitor: 99mTc-A1)
Method: as §2

T1 sequence (Q13421 other isoform, or with tags, fused parts or gaps limits assumed): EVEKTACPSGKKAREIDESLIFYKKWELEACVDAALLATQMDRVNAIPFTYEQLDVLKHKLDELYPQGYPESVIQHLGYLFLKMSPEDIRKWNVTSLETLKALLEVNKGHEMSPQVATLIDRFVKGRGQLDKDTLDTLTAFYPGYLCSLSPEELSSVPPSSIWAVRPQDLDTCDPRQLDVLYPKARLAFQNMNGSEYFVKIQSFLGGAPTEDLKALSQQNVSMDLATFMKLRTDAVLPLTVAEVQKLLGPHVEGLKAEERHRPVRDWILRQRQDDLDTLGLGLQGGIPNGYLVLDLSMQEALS

Binder | 99mTc-A1 uptake in HCC70 tumors by SPECT quantification, with competition (150-fold excess of unlabeled A1) [1] [% ID/g] | fold decrease in 99mTc-A1 uptake in HCC70 tumors by SPECT quantification, co-injection of a 150-fold excess of unlabeled A1 [1] [fold] | fold decrease in 99mTc-A1 uptake in HCC70 tumors, ex vivo biodistribution, with excess of unlabeled A1 [1] [fold] | fold affinity against 99mTc-C6 [2] [fold] | Kd [3] [nM] | Kd [4] [nM] | fold binding on HCC70 cells against MSLN-negative MDA-MB-231 cells [5] [fold] | fold decrease in 99mTc-A1 binding to HCC70 cells [6] [fold]
99mTc-A1 (anti-mesothelin A1 single domain antibody radiolabeled with technetium-99m at its C-terminal hexahistidine tag) (VHH, 99mTc-tricarbonyl at the C-terminal hexahistidine-tag (His-Tag), Labeled by the tricarbonyl method; also called radiolabeled A1 nanobody) VHH: QVQLVQSGGGLVHPGGSLRLSCAASGIDLSLYRMRWYRQAPGKERDLVALITDDGTSYYEDSVKGRFTITRDNPSNKVFLQMNSLKPEDTAVYYCNAETPLSPVNYWGQGTQVTVSH | 0.6 | ~7 | ~7 | > 2 | 35 | 43.9 | 7.9 | –
A1 anti-mesothelin single domain antibody, unlabeled (VHH, Same protein as in m1, without the radiolabel; also called unlabeled A1; A1 nanobody) VHH: QVQLVQSGGGLVHPGGSLRLSCAASGIDLSLYRMRWYRQAPGKERDLVALITDDGTSYYEDSVKGRFTITRDNPSNKVFLQMNSLKPEDTAVYYCNAETPLSPVNYWGQGTQVTVSH | – | – | – | – | – | – | – | 6
